Laboratory results as given in US20200131230A1 (published 2020).
Where two headings read alike, the source gives them in different places. Positions of bridges follow the written chain, without caps; N, C: chain ends. Non-standard residues stand in square brackets, D forms with d. 2Nal = N[C@@H](Cc1ccc2ccccc2c1)C(=O)O; Phg = N[C@H](C(=O)O)c1ccccc1; Tle = CC(C)(C)[C@H](N)C(=O)O; hCys = N[C@@H](CCS)C(=O)O; Nle = CCCC[C@H](N)C(=O)O; MS = not defined here

How the values were obtained:
[1] = target: T1, Thrombospondin human platelet (Calbiochem, 605225) (human, UniProt P07996 19-1170); experiment: cell-based or functional assay
[2] = target: T1, Thrombospondin human platelet …; experiment: cell-based or functional assay; remark: listed apart in the source
Recombinant-hTSP1 = Recombinant-hTSP1 (human, UniProt P07996 19-1170, limits assumed); experiment: SPR (Biacore T200), single-cycle kinetics, recombinant hTSP1 immobilised on NTA chip
Protocol: First, 500 μM NiCl₂ was injected over an NTA-Chip (produced by GE Healthcare, BR100532) at a flow rate of 5 μL/min. for 1 minute to thereby activate NTA groups. Then, an EDC/NHS mixture was injected at a flow rate of 10 μL/min. for 7 minutes to thereby activate the carboxyl groups of dextran. Recombinant-hTSP1 was injected at a flow rate of 10 μL/min. for 7 minutes to immobilize the TSP1 on the substrate surfaces with activated NTA and carboxyl groups. Ethanolamine was injected at a flow rate of 10 μL/min. for 7 minutes to thereby deactivate unreacted, activated carboxyl groups.
Since Biacore T200 is highly responsive to change in DMSO concentrations, DMSO solutions were sequentially injected at concentrations of 4%, 4.4%, 4.8%, 5.2%, 5.6%, and 6% to correct for DMSO effects.
The analysis was conducted using the evaluation software provided with Biacore T100 and T200. A DMSO correction curve obtained by solvent correction measurements was applied for the analysis. Kinetics fitting was done on the difference data obtained by subtracting the baseline data from sample measurement data.

[3] = target: T1, Thrombospondin human platelet …; experiment: cell-based or functional assay; remark: listed apart in the source

Sequence of Recombinant-hTSP1 (P07996 19-1170 limits assumed): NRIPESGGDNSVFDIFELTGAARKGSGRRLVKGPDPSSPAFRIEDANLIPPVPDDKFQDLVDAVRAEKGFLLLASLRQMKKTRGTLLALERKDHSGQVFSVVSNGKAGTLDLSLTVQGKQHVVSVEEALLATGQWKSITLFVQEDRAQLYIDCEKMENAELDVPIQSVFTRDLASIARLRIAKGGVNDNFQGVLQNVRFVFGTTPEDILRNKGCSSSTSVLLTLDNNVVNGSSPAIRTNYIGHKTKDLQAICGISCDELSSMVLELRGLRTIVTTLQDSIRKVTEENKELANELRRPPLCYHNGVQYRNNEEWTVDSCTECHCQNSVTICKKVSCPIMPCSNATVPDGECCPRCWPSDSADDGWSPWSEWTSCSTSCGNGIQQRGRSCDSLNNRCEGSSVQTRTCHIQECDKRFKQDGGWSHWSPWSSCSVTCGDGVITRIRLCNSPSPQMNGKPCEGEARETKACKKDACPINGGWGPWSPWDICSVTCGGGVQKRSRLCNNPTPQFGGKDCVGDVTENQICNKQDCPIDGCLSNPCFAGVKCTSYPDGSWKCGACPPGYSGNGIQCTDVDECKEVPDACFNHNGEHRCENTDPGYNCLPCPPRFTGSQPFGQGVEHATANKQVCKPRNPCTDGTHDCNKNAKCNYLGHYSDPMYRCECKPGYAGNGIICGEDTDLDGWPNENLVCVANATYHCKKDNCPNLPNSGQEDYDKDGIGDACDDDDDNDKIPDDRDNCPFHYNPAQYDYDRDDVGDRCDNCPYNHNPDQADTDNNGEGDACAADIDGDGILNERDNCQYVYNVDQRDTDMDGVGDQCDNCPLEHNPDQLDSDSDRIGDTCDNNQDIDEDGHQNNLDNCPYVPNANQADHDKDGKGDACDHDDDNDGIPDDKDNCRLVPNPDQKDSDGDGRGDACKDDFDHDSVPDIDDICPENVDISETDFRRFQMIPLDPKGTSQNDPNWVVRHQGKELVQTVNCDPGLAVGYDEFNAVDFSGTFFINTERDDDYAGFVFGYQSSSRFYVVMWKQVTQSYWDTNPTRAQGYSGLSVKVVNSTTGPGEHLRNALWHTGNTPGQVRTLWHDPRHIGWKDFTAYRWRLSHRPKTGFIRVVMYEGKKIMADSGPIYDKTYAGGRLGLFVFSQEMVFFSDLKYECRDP
T1 sequence (P07996 19-1170 limits assumed): as above

Binder | Cell adhesion IC50 [1] [nM] | Kd (Recombinant-hTSP1) [nM] | Cell adhesion IC50 [3] [nM] | also measured
{CH2CO}-[2Nal]ISGRNWVKWVC-NH2 (thioether N-12; SMILES CC[C@H](C)[C@@H]1NC(=O)[C@H](Cc2ccc3ccccc3c2)NC(=O)CSC[C@@H](C(N)=O)NC(=O)[C@H](C(C)C)NC(=O)[C@H](Cc2c[nH]c3ccccc23)NC(=O)[C@H](CCCCN)NC(=O)[C@H](C(C)C)NC(=O)[C@H](Cc2c[nH]c3ccccc23)NC(=O)[C@H](CC(N)=O)NC(=O)[C@H](CCCNC(=N)N)NC(=O)CNC(=O)[C@H](CO)NC1=O) [Compound 24] |  | 0.12 |  | Cell adhesion IC50 [2]: 6.1 nM
{CH2CO}-[2Nal]ISGHNWVKWVC-NH2 (thioether N-12; SMILES CC[C@H](C)[C@@H]1NC(=O)[C@H](Cc2ccc3ccccc3c2)NC(=O)CSC[C@@H](C(N)=O)NC(=O)[C@H](C(C)C)NC(=O)[C@H](Cc2c[nH]c3ccccc23)NC(=O)[C@H](CCCCN)NC(=O)[C@H](C(C)C)NC(=O)[C@H](Cc2c[nH]c3ccccc23)NC(=O)[C@H](CC(N)=O)NC(=O)[C@H](Cc2c[nH]cn2)NC(=O)CNC(=O)[C@H](CO)NC1=O) [Compound 42] |  | 0.44 | 32 | 
{CH2CO}-[2Nal]ISGKNWVKWVC-NH2 (thioether N-12; SMILES CC[C@H](C)[C@@H]1NC(=O)[C@H](Cc2ccc3ccccc3c2)NC(=O)CSC[C@@H](C(N)=O)NC(=O)[C@H](C(C)C)NC(=O)[C@H](Cc2c[nH]c3ccccc23)NC(=O)[C@H](CCCCN)NC(=O)[C@H](C(C)C)NC(=O)[C@H](Cc2c[nH]c3ccccc23)NC(=O)[C@H](CC(N)=O)NC(=O)[C@H](CCCCN)NC(=O)CNC(=O)[C@H](CO)NC1=O) [Compound 43] |  | 0.13 | 9.2 | 
{CH2CO}-[2Nal]ISGRNWVHWVC-NH2 (thioether N-12; SMILES CC[C@H](C)[C@@H]1NC(=O)[C@H](Cc2ccc3ccccc3c2)NC(=O)CSC[C@@H](C(N)=O)NC(=O)[C@H](C(C)C)NC(=O)[C@H](Cc2c[nH]c3ccccc23)NC(=O)[C@H](Cc2c[nH]cn2)NC(=O)[C@H](C(C)C)NC(=O)[C@H](Cc2c[nH]c3ccccc23)NC(=O)[C@H](CC(N)=O)NC(=O)[C@H](CCCNC(=N)N)NC(=O)CNC(=O)[C@H](CO)NC1=O) [Compound 41] |  | 0.37 | 16.4 | 
{CH2CO}-[2Nal]ISGSNWVKWVC-NH2 (thioether N-12; SMILES CC[C@H](C)[C@@H]1NC(=O)[C@H](Cc2ccc3ccccc3c2)NC(=O)CSC[C@@H](C(N)=O)NC(=O)[C@H](C(C)C)NC(=O)[C@H](Cc2c[nH]c3ccccc23)NC(=O)[C@H](CCCCN)NC(=O)[C@H](C(C)C)NC(=O)[C@H](Cc2c[nH]c3ccccc23)NC(=O)[C@H](CC(N)=O)NC(=O)[C@H](CO)NC(=O)CNC(=O)[C@H](CO)NC1=O) [Compound 44] |  | 0.58 | 30.3 | 
{CH2CO}-[2Nal]ISGRNW[Phg]KWVC-NH2 (thioether N-12; SMILES CC[C@H](C)[C@@H]1NC(=O)[C@H](Cc2ccc3ccccc3c2)NC(=O)CSC[C@@H](C(N)=O)NC(=O)[C@H](C(C)C)NC(=O)[C@H](Cc2c[nH]c3ccccc23)NC(=O)[C@H](CCCCN)NC(=O)[C@H](c2ccccc2)NC(=O)[C@H](Cc2c[nH]c3ccccc23)NC(=O)[C@H](CC(N)=O)NC(=O)[C@H](CCCNC(=N)N)NC(=O)CNC(=O)[C@H](CO)NC1=O) [Compound 51] | 16 |  |  | 
{CH2CO}-[2Nal]ISGRN[2Nal]VKWVC-NH2 (thioether N-12; SMILES CC[C@H](C)[C@@H]1NC(=O)[C@H](Cc2ccc3ccccc3c2)NC(=O)CSC[C@@H](C(N)=O)NC(=O)[C@H](C(C)C)NC(=O)[C@H](Cc2c[nH]c3ccccc23)NC(=O)[C@H](CCCCN)NC(=O)[C@H](C(C)C)NC(=O)[C@H](Cc2ccc3ccccc3c2)NC(=O)[C@H](CC(N)=O)NC(=O)[C@H](CCCNC(=N)N)NC(=O)CNC(=O)[C@H](CO)NC1=O) [Compound 28] |  | 0.55 | 29.4 | 

More lines, main results first:

Cell adhesion IC50 [1] [nM] | Kd (Recombinant-hTSP1) [nM] | Cell adhesion IC50 [3] [nM] | Binder | also measured
12.7 |  |  | {CH2CO}-[2Nal]ISG[MS]DW[Nle]KWVC-NH2 (thioether N-12; reading uncertain) [Compound 67] | 
19.5 |  |  | {CH2CO}-[2Nal]ISGRNWVKWV[hCys]-NH2 (thioether N-12; SMILES CC[C@H](C)[C@@H]1NC(=O)[C@H](Cc2ccc3ccccc3c2)NC(=O)CSCC[C@@H](C(N)=O)NC(=O)[C@H](C(C)C)NC(=O)[C@H](Cc2c[nH]c3ccccc23)NC(=O)[C@H](CCCCN)NC(=O)[C@H](C(C)C)NC(=O)[C@H](Cc2c[nH]c3ccccc23)NC(=O)[C@H](CC(N)=O)NC(=O)[C@H](CCCNC(=N)N)NC(=O)CNC(=O)[C@H](CO)NC1=O) [Compound 54] | 
13.2 |  |  | {CH2CO}-[2Nal]ISGKN[2Nal]VKWVC-NH2 (thioether N-12; SMILES CC[C@H](C)[C@@H]1NC(=O)[C@H](Cc2ccc3ccccc3c2)NC(=O)CSC[C@@H](C(N)=O)NC(=O)[C@H](C(C)C)NC(=O)[C@H](Cc2c[nH]c3ccccc23)NC(=O)[C@H](CCCCN)NC(=O)[C@H](C(C)C)NC(=O)[C@H](Cc2ccc3ccccc3c2)NC(=O)[C@H](CC(N)=O)NC(=O)[C@H](CCCCN)NC(=O)CNC(=O)[C@H](CO)NC1=O) [Compound 56] | 
20.7 |  |  | {CH2CO}-[2Nal]ISGHNW[Nle]KWVC-NH2 (thioether N-12; SMILES CCCC[C@@H]1NC(=O)[C@H](Cc2c[nH]c3ccccc23)NC(=O)[C@H](CC(N)=O)NC(=O)[C@H](Cc2c[nH]cn2)NC(=O)CNC(=O)[C@H](CO)NC(=O)[C@H]([C@@H](C)CC)NC(=O)[C@H](Cc2ccc3ccccc3c2)NC(=O)CSC[C@@H](C(N)=O)NC(=O)[C@H](C(C)C)NC(=O)[C@H](Cc2c[nH]c3ccccc23)NC(=O)[C@H](CCCCN)NC1=O) [Compound 59] | 
15.9 |  |  | {CH2CO}-[2Nal]ISGRNWVKW[Tle]C-NH2 (thioether N-12; SMILES CC[C@H](C)[C@@H]1NC(=O)[C@H](Cc2ccc3ccccc3c2)NC(=O)CSC[C@@H](C(N)=O)NC(=O)[C@H](C(C)(C)C)NC(=O)[C@H](Cc2c[nH]c3ccccc23)NC(=O)[C@H](CCCCN)NC(=O)[C@H](C(C)C)NC(=O)[C@H](Cc2c[nH]c3ccccc23)NC(=O)[C@H](CC(N)=O)NC(=O)[C@H](CCCNC(=N)N)NC(=O)CNC(=O)[C@H](CO)NC1=O) [Compound 53] | 
15.6 |  |  | {CH2CO}-[2Nal]ISGKDW[Nle]KWVC-NH2 (thioether N-12; SMILES CCCC[C@@H]1NC(=O)[C@H](Cc2c[nH]c3ccccc23)NC(=O)[C@H](CC(=O)O)NC(=O)[C@H](CCCCN)NC(=O)CNC(=O)[C@H](CO)NC(=O)[C@H]([C@@H](C)CC)NC(=O)[C@H](Cc2ccc3ccccc3c2)NC(=O)CSC[C@@H](C(N)=O)NC(=O)[C@H](C(C)C)NC(=O)[C@H](Cc2c[nH]c3ccccc23)NC(=O)[C@H](CCCCN)NC1=O) [Compound 57] | 
10.3 |  |  | {CH2CO}-[2Nal]ISGRNWVKW[Phg]C-NH2 (thioether N-12; SMILES CC[C@H](C)[C@@H]1NC(=O)[C@H](Cc2ccc3ccccc3c2)NC(=O)CSC[C@@H](C(N)=O)NC(=O)[C@H](c2ccccc2)NC(=O)[C@H](Cc2c[nH]c3ccccc23)NC(=O)[C@H](CCCCN)NC(=O)[C@H](C(C)C)NC(=O)[C@H](Cc2c[nH]c3ccccc23)NC(=O)[C@H](CC(N)=O)NC(=O)[C@H](CCCNC(=N)N)NC(=O)CNC(=O)[C@H](CO)NC1=O) [Compound 52] | 
30.6 |  |  | {CH2CO}-FISGRNWVTWVC-NH2 (thioether N-12; SMILES CC[C@H](C)[C@@H]1NC(=O)[C@H](Cc2ccccc2)NC(=O)CSC[C@@H](C(N)=O)NC(=O)[C@H](C(C)C)NC(=O)[C@H](Cc2c[nH]c3ccccc23)NC(=O)[C@H]([C@@H](C)O)NC(=O)[C@H](C(C)C)NC(=O)[C@H](Cc2c[nH]c3ccccc23)NC(=O)[C@H](CC(N)=O)NC(=O)[C@H](CCCNC(=N)N)NC(=O)CNC(=O)[C@H](CO)NC1=O) [Compound 65] | 
33.8 |  |  | {CH2CO}-FISGKNWVSWVC-NH2 (thioether N-12; SMILES CC[C@H](C)[C@@H]1NC(=O)[C@H](Cc2ccccc2)NC(=O)CSC[C@@H](C(N)=O)NC(=O)[C@H](C(C)C)NC(=O)[C@H](Cc2c[nH]c3ccccc23)NC(=O)[C@H](CO)NC(=O)[C@H](C(C)C)NC(=O)[C@H](Cc2c[nH]c3ccccc23)NC(=O)[C@H](CC(N)=O)NC(=O)[C@H](CCCCN)NC(=O)CNC(=O)[C@H](CO)NC1=O) [Compound 66] | 
